Results as given in paper PMC2773002, “Differential Role of Human Choline Kinase α and β Enzymes in Lipid Metabolism: Implications in Cancer Onset and Treatment” (PLoS ONE, 2009).

Tests used:
[1] = substrate: C[N+](C)(C)CCO; experiment: Michaelis-Menten kinetics (Km), radiolabelled substrate, extracts of E. coli expressing the recombinant enzyme; type: biochemical, Homo sapiens; conditions: ATP, MgCl2
[2] = substrate: NCCO; experiment: as above; type: biochemical, Homo sapiens; conditions: ATP, MgCl2

B1: ChoKβ (choline kinase beta, ChoKβ1) (Homo sapiens) (protein)
chain: AAEATAVAGSGAVGGCLAKDGLQQSKCPDTTPKRRRASSLSRDAERRAYQWCREYLGGAWRRVQPEELRVYPVSGGLSNLLFRCSLPDHLPSVGEEPREVLLRLYGAILQGVDSLVLESVMFAILAERSLGPQLYGVFPEGRLEQYIPSRPLKTQELREPVLSAAIATKMAQFHGMEMPFTKEPHWLFGTMERYLKQIQDLPPTGLPEMNLLEMYSLKDEMGNLRKLLESTPSPVVFCHNDIQEGNILLLSEPENADSLMLVDFEYSSYNYRGFDIGNHFCEWVYDYTHEEWPFYKARPTDYPTQEQQLHFIRHYLAEAKKGETLSQEEQRKLEEDLLVEVSRYALASHFFWGLWSILQASMSTIEFGYLDYAQSRFQFYFQQKGQLTSVHSSS
notes: human ChoKβ1 expressed in E. coli DH5α (extracts)
Km [1]: 570 µM
Km [2]: 2010 µM
